Columns and labels:
Experiment in all cases: cell-based or functional assay
[1] = target: HIV-1 Env of pseudovirus 3817.v2.c59 (HIV-1)
[2] = target: HIV-1 Env of pseudovirus 231965.c01 (HIV-1)
[3] = target: HIV-1 Env of pseudovirus C1080.c03 (HIV-1)
[4] = target: HIV-1 Env of pseudovirus R1166.c01 (HIV-1)
[5] = target: HIV-1 Env of pseudovirus X1632_S2_B10 (HIV-1)
[6] = target: HIV-1 Env of pseudovirus X2131_C1_B5 (HIV-1)
[7] = target: HIV-1 Env of pseudovirus X1193_c1 (HIV-1)
[8] = target: HIV-1 Env of pseudovirus 235-47 (HIV-1)
[9] = target: HIV-1 Env of pseudovirus R3265.c06 (HIV-1)
[10] = target: HIV-1 Env of pseudovirus 6540.v4.c1 (HIV-1)
[11] = target: HIV-1 Env of pseudovirus BJOX028000.10.3 (HIV-1)
[12] = target: HIV-1 Env of pseudovirus P0402_c2_11 (HIV-1)
[13] = target: HIV-1 Env of pseudovirus 211-9 (HIV-1)
[14] = target: HIV-1 Env of pseudovirus BJOX009000.02.4 (HIV-1)
[15] = target: HIV-1 Env of pseudovirus BJOX025000.01.1 (HIV-1)
[16] = target: HIV-1 Env of pseudovirus 231966.c02 (HIV-1)
[17] = target: HIV-1 Env of pseudovirus X1254_c3 (HIV-1)
[18] = target: HIV-1 Env of pseudovirus 6041.v3.c23 (HIV-1)
[19] = target: HIV-1 Env of pseudovirus X2088_c9 (HIV-1)
[20] = target: HIV-1 Env of pseudovirus BJOX010000.06.2 (HIV-1)
[21] = target: HIV-1 Env of pseudovirus A07412M1.vrc12 (HIV-1)
[22] = target: HIV-1 Env of pseudovirus 0815.v3.c3 (HIV-1)
[23] = target: HIV-1 Env of pseudovirus R2184.c04 (HIV-1)
[24] = target: HIV-1 Env of pseudovirus T278-50 (HIV-1)
[25] = target: HIV-1 Env of pseudovirus 6952.v1.c20 (HIV-1)
[26] = target: HIV-1 Env of pseudovirus C3347.c11 (HIV-1)
[27] = target: HIV-1 Env of pseudovirus BJOX015000.11.5 (HIV-1)
[28] = target: HIV-1 Env of pseudovirus 89-F1_2_25 (HIV-1)
[29] = target: HIV-1 Env of pseudovirus T255-34 (HIV-1)
[30] = target: HIV-1 Env of pseudovirus 6811.v7.c18 (HIV-1)
[31] = target: HIV-1 Env of pseudovirus 6545.v4.c1 (HIV-1)
[32] = target: HIV-1 Env of pseudovirus 3016.v5.c45 (HIV-1)

Work on PG16 (antibody) yielded an IC50 neutralization (TZM.bl) [1] of 0.008 µg/mL, an IC80 neutralization (TZM.bl) [1] of 0.06 µg/mL and an IC50 neutralization (TZM.bl) [2] of 1.44 µg/mL. The IC80 neutralization (TZM.bl) [2] was > 50 µg/mL, the IC50 neutralization (TZM.bl) [3] was 0.001 µg/mL and the IC80 neutralization (TZM.bl) [3] was 0.003 µg/mL. It also gave an IC50 neutralization (TZM.bl) [4] of 0.28 µg/mL, an IC80 neutralization (TZM.bl) [4] of 4.38 µg/mL and an IC50 neutralization (TZM.bl) [5] of 0.012 µg/mL. The IC80 neutralization (TZM.bl) [5] was 0.076 µg/mL, the IC50 neutralization (TZM.bl) [6] was 0.024 µg/mL and the IC80 neutralization (TZM.bl) [6] was 0.139 µg/mL. The IC50 neutralization (TZM.bl) [7] was 0.018 µg/mL, the IC80 neutralization (TZM.bl) [7] was 0.11 µg/mL and the IC50 neutralization (TZM.bl) [8] was 0.092 µg/mL. For the same substance, the IC80 neutralization (TZM.bl) [8] was 4.51 µg/mL, the IC50 neutralization (TZM.bl) [9] was 0.016 µg/mL and the IC80 neutralization (TZM.bl) [9] was 0.146 µg/mL. The IC50 neutralization (TZM.bl) [10] was 0.035 µg/mL, the IC80 neutralization (TZM.bl) [10] was 0.42 µg/mL and the IC50 neutralization (TZM.bl) [11] was > 50 µg/mL. The IC80 neutralization (TZM.bl) [11] was > 50 µg/mL, the IC50 neutralization (TZM.bl) [12] was 0.025 µg/mL and the IC80 neutralization (TZM.bl) [12] was 0.411 µg/mL. The IC50 neutralization (TZM.bl) [13] was 0.029 µg/mL, the IC80 neutralization (TZM.bl) [13] was 0.144 µg/mL and the IC50 neutralization (TZM.bl) [14] was 1.19 µg/mL. For the same substance, the IC80 neutralization (TZM.bl) [14] was 22.1 µg/mL, the IC50 neutralization (TZM.bl) [15] was 0.071 µg/mL and the IC80 neutralization (TZM.bl) [15] was > 50 µg/mL. For the same substance, the IC50 neutralization (TZM.bl) [16] was 0.007 µg/mL, the IC80 neutralization (TZM.bl) [16] was 0.031 µg/mL and the IC50 neutralization (TZM.bl) [17] was 0.023 µg/mL. The IC80 neutralization (TZM.bl) [17] was 0.218 µg/mL, the IC50 neutralization (TZM.bl) [18] was 0.048 µg/mL and the IC80 neutralization (TZM.bl) [18] was 0.256 µg/mL. For the same substance, the IC50 neutralization (TZM.bl) [19] was > 50 µg/mL, the IC80 neutralization (TZM.bl) [19] was > 50 µg/mL and the IC50 neutralization (TZM.bl) [20] was 1.2 µg/mL. For the same substance, the IC80 neutralization (TZM.bl) [20] was > 50 µg/mL, the IC50 neutralization (TZM.bl) [21] was 0.343 µg/mL and the IC80 neutralization (TZM.bl) [21] was > 50 µg/mL. The IC50 neutralization (TZM.bl) [22] was > 50 µg/mL, the IC80 neutralization (TZM.bl) [22] was > 50 µg/mL and the IC50 neutralization (TZM.bl) [23] was 0.67 µg/mL. The IC80 neutralization (TZM.bl) [23] was > 50 µg/mL, the IC50 neutralization (TZM.bl) [24] was 0.227 µg/mL and the IC80 neutralization (TZM.bl) [24] was 18.6 µg/mL. The IC50 neutralization (TZM.bl) [25] was 21.9 µg/mL, the IC80 neutralization (TZM.bl) [25] was > 50 µg/mL and the IC50 neutralization (TZM.bl) [26] was 0.008 µg/mL. For the same substance, the IC80 neutralization (TZM.bl) [26] was 0.045 µg/mL, the IC50 neutralization (TZM.bl) [27] was 3.13 µg/mL and the IC80 neutralization (TZM.bl) [27] was > 50 µg/mL. For the same substance, the IC50 neutralization (TZM.bl) [28] was 47.6 µg/mL, the IC80 neutralization (TZM.bl) [28] was > 50 µg/mL and the IC50 neutralization (TZM.bl) [29] was 0.024 µg/mL. For the same substance, the IC80 neutralization (TZM.bl) [29] was 0.125 µg/mL, the IC50 neutralization (TZM.bl) [30] was > 50 µg/mL and the IC80 neutralization (TZM.bl) [30] was > 50 µg/mL. For the same substance, the IC50 neutralization (TZM.bl) [31] was 0.044 µg/mL, the IC80 neutralization (TZM.bl) [31] was 1.56 µg/mL and the IC50 neutralization (TZM.bl) [32] was > 50 µg/mL. The IC80 neutralization (TZM.bl) [32] was > 50 µg/mL.
